In patent US20240132603A1 (HARBOUR BIOMED US, published 2024):

Legend:
human CCR8 [1] = target: T1, human CCR8 (human, UniProt P51685 1-355); test: FACS, CHO-K1-hCCR8 cells
T1 construct: whole, on cells; construct used for the overexpressing cell lines is not described; also called hCCR8
Method in brief: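 Binding was measured on intact cells by two-step staining at 4 °C. Test antibodies were applied from 200 nM in 5-fold steps for 1 h, and a secondary reagent at 1:1000 for 40 min, before analysis on a FACS instrument.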

cynomolgus monkey CCR8 [2] = target: T2, cynomolgus monkey CCR8 (cynomolgus monkey, UniProt G7NYJ2 1-355); test: FACS, CHO-K1-CynoCCR8 cells
T2 construct: whole, on cells; also called CynoCCR8
T2 sequence (G7NYJ2 entry or part of it): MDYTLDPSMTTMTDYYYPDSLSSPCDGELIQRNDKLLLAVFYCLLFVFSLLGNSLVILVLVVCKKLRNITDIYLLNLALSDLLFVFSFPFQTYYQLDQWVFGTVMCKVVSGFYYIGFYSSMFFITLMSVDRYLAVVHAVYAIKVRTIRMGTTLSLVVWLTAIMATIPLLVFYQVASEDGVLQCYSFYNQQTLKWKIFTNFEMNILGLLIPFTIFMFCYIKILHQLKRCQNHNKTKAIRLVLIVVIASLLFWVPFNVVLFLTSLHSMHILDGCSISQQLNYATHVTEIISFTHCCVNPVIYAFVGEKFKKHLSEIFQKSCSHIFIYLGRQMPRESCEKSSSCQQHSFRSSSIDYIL
Method in brief: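 Anti-CCR8 antibodies titrated in 5-fold steps from 200 nM onto 1E6 cells/mL CHO-K1-CynoCCR8 in DPBS/2% FBS, 1 h at 4 °C. Bound antibody detected with 1:1000 secondary antibody, 40 min at 4 °C, then flow cytometry.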

human CCR8 [3] = target: T1, human CCR8; test: KinExA, cell line overexpressing human CCR8; human CCR8 cell line
Procedure: (§1) To 200 mg of PMMA hard beads was added 30 μg of Goat Anti-Human IgG Fc antibody, and the mixture was supplemented with a coating solution to 1.0 mL, with a buffer composition of 1×PBS, pH7.4, to ensure that the beads were completely suspended in the solution. After being spun at room temperature for 2 h, the beads were either allowed to settle naturally or centrifuged briefly at low speed, and the supernatant was removed. 1 mL of blocking buffer (1×PBS, pH7.4, containing 10 mg/mL BSA) was added to ensure that the beads were resuspended in the blocking solution, and the beads were spun at room temperature for 1 h. An appropriate concentration of PR005565, PR006155 or PR006166 was used as the 100% signal value, and PBS blank was used as the background value. The net signal values were detected using 0.5 μg/mL Alexa Fluor® 647 Goat Anti-Human IgG. The cell line overexpressing human or monkey CCR8 was collected by centrifugation at 1500 g for 5 min, washed 2 times with 2 PBS and centrifuged at 350 g. The cells were collected in a 1.5 mL centrifuge tube. 10 mL of 0.2 nM PR005565, PR006155 or PR006166 solution was prepared. The total cells were supplemented with 0.2 nM PR005565, PR006155 or PR006166 solution to 0.82 mL, and diluted in a 2-fold gradient with 0.2 nM PR005565, PR006155 or PR006166 as a buffer. […]

TSPAN4-FLAG [4] = target: T3, TSPAN4-FLAG (UniProt O14817 1-238, limits assumed); test: flow cytometry, HEK293-TSPAN4 cells
T3 construct: whole, on cells; order of protein and tag unknown; also called HEK293-TSPAN4; not shown: FLAG tag
T3 sequence (looked up): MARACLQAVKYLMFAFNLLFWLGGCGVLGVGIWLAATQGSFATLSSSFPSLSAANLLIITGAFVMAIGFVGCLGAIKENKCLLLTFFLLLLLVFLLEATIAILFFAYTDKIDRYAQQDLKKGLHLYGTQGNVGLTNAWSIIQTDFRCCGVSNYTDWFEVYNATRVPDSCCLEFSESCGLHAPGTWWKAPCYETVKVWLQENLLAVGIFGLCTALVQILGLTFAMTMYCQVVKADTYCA

TSPAN12-FLAG [5] = target: T4, TSPAN12-FLAG (UniProt O95859 1-305); test: flow cytometry, HEK293-TSPAN12 cells
T4 construct: whole, on cells; order of protein and tag unknown; also called HEK293-TSPAN12; not shown: FLAG tag
T4 sequence (looked up): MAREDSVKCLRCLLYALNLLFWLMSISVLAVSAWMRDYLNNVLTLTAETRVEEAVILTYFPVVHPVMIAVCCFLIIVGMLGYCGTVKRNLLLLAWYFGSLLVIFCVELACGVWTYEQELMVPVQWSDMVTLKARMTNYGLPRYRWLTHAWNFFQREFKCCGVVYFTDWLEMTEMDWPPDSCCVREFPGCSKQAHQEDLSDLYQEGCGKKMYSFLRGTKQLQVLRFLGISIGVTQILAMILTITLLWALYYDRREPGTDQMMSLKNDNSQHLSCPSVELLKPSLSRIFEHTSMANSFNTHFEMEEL
From the text: (§2) After that, HEK293 cells were transfected with commercial MMP16 (protein information can be found under Uniprot P51512), CD40LG (protein information can be found under Uniprot P29965), CD147 (protein information can be found under Uniprot P35612), TSPAN4 (protein information can be found under Uniprot 014817), and TSPAN12 (protein information can be found under Uniprot 095859) plasmids for further verification of the binding of PR005565, PR006275 and PR006276 to these proteins. […] However, the binding values of PR005565, PR006275 and PR006276 to MMP16, CD40LG, CD147, TSPAN4 and TSPAN12 after transfection of HEK293 cells were all consistent with the signal values of HEK293 cells themselves. Thus, PR005565, PR006275 and PR006276 had no non-specific binding to MMP16, CD40LG, CD147, TSPAN4 and TSPAN12 proteins (see Table 50).

MMP16 [6] = target: T5, MMP16 (UniProt P51512 120-607); test: flow cytometry, HEK293-MMP16 cells
T5 construct: whole, on cells; also called HEK293-MMP16
T5 sequence (P51512 120-607): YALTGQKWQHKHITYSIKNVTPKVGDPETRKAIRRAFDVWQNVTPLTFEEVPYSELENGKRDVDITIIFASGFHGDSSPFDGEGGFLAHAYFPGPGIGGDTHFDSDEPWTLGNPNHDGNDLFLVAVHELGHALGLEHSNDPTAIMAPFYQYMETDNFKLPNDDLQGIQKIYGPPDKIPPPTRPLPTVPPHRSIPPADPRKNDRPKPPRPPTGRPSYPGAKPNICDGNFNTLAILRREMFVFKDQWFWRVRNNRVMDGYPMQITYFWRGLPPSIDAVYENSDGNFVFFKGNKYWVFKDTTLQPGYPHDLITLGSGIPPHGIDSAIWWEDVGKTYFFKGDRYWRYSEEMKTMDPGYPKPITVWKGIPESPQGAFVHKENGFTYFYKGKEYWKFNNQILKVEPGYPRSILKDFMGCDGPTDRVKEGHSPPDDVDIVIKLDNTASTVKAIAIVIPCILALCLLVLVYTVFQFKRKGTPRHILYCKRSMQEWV

CD147 = target: T6, CD147; test: flow cytometry, HEK293-CD147 cells
T6 construct: also called HEK293-CD147

CD40LG [7] = target: T7, CD40LG (UniProt P29965 1-261); test: flow cytometry, HEK293-CD40LG cells
T7 construct: whole, on cells; also called HEK293-CD40LG
T7 sequence (looked up): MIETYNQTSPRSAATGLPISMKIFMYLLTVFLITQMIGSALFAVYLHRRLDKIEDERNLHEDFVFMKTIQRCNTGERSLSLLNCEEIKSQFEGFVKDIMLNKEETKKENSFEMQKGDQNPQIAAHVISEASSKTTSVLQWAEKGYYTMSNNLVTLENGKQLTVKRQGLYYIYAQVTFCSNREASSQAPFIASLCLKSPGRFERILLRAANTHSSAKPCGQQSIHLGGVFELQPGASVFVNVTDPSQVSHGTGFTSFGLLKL

TSPAN12-FLAG [8] = target: T4, TSPAN12-FLAG; test: flow cytometry, transfected HEK293 cells
From the text: as §2

CD40LG [9] = target: T7, CD40LG; test: flow cytometry, transfected HEK293 cells
From the text: as §2

MMP16 [10] = target: T5, MMP16; test: flow cytometry, transfected HEK293 cells
From the text: as §2

TSPAN4-FLAG [11] = target: T3, TSPAN4-FLAG; test: flow cytometry, transfected HEK293 cells
From the text: as §2

cynomolgus monkey CCR8 [12] = target: T2, cynomolgus monkey CCR8; test: KinExA, cell line overexpressing monkey CCR8; monkey CCR8 cell line
Procedure: as §1

T1 sequence (P51685 whole entry): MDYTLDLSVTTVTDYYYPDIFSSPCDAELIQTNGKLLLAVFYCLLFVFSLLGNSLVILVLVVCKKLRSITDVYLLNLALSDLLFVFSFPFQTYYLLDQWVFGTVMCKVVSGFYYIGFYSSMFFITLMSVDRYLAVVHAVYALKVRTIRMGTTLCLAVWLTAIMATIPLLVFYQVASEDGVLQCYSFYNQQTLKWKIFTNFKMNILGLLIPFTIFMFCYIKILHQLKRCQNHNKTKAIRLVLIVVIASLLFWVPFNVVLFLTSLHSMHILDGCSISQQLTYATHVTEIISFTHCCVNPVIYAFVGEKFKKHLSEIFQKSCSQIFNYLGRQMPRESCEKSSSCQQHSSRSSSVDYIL

Binder | EC50 (human CCR8 [1]) [nM] | EC50 (cynomolgus monkey CCR8 [2]) [nM] | Kd (human CCR8 [3]) [nM] | MFI (TSPAN4-FLAG [4]) | MFI (TSPAN12-FLAG [5]) | MFI (MMP16 [6]) | MFI (CD147) | MFI (CD40LG [7]) | binding result (TSPAN12-FLAG [8]) | binding result (CD40LG [9]) | binding result (MMP16 [10]) | binding result (TSPAN4-FLAG [11]) | Kd (cynomolgus monkey CCR8 [12]) [nM]
PR006155 (antibody, human IgG1, kappa) heavy: not shown light: DIVMTQSPLSLPVTLGQPASISCRSSKSLLHSNAKIYLYWFQQRPGQSPRLLIYRMSNLASGVPDRFSGSGSGTDFTLKISRVEAEDVGVYYCMQHLEYPLTFGQGTKLEIKRTVAAPSVFIFPPSDEQLKSGTASVVCLLNNFYPREAKVQWKVDNALQSGNSQESVTEQDSKDSTYSLSSTLTLSKADYEKHKVYACEVTHQGLSSPVTKSFNRGEC | 0.38 | 0.39 | 0.0214 | – | – | – | – | – | – | – | – | – | –
PR006276 (antibody, human IgG1, kappa) heavy: not shown light: DIVMTQSPLSLPVTLGQPASISCRSSKSLLHSNAKIYLYWFQQRPGQSPRLLIYRMSNLASGVPDRFSGSGSGTDFTLKISRVEAEDVGVYYCMQHLEYPLTFGQGTKLEIKRTVAAPSVFIFPPSDEQLKSGTASVVCLLNNFYPREAKVQWKVDNALQSGNSQESVTEQDSKDSTYSLSSTLTLSKADYEKHKVYACEVTHQGLSSPVTKSFNRGEC | 0.4 | 0.51 | – | 203 | 185 | 160 | 152 | 152 | no binding | no binding | no binding | no binding | –
PR006166 (antibody, human IgG1, kappa) heavy: not shown light: DIVMTQSPLSLPVTLGQPASISCRSSKSLLHSNAKIYLYWFQQRPGQSPRLLIYRMSNLASGVPDRFSGSGSGTDFTLKISRVEAEDVGVYYCMQHLEYPLTFGQGTKLEIKRTVAAPSVFIFPPSDEQLKSGTASVVCLLNNFYPREAKVQWKVDNALQSGNSQESVTEQDSKDSTYSLSSTLTLSKADYEKHKVYACEVTHQGLSSPVTKSFNRGEC | 0.49 | 0.44 | – | – | – | – | – | – | – | – | – | – | 0.0493
PR006275 (antibody, human IgG1, kappa) heavy: not shown light: DIVMTQSPLSLPVTLGQPASISCRSSKSLLHSNAKIYLYWFQQRPGQSPRLLIYRMSNLASGVPDRFSGSGSGTDFTLKISRVEAEDVGVYYCMQHLEYPLTFGQGTKLEIKRTVAAPSVFIFPPSDEQLKSGTASVVCLLNNFYPREAKVQWKVDNALQSGNSQESVTEQDSKDSTYSLSSTLTLSKADYEKHKVYACEVTHQGLSSPVTKSFNRGEC | 0.38 | 0.47 | – | 424 | 398 | 204 | 362 | 352 | no binding | no binding | no binding | no binding | –
